Reference: article PMC9108607, “The intrinsically disordered CARDs‐Helicase linker in RIG‐I is a molecular gate for RNA proofreading”

Key:
WT RIG-I = biological target: T1, WT RIG-I (human, UniProt O95786 1-925); assay: RNA-dependent ATPase titration (KD,app); 1 mM ATP; Buffer A: 50 mM MOPS pH 7.4, 5 mM DTT, 5 mM MgCl2, 0.01% Tween20, 25°C (fluorimetry: 15 nM RNA; ATPase: 15 nM protein, 1 mM ATP); EMSA in Buffer A at 4°C; details: protein: recombinant; tags: 6xHis-SUMO removed by Ulp1; label: 3' DY547 and 5' biotin on strand 2; blunt
T1 sequence: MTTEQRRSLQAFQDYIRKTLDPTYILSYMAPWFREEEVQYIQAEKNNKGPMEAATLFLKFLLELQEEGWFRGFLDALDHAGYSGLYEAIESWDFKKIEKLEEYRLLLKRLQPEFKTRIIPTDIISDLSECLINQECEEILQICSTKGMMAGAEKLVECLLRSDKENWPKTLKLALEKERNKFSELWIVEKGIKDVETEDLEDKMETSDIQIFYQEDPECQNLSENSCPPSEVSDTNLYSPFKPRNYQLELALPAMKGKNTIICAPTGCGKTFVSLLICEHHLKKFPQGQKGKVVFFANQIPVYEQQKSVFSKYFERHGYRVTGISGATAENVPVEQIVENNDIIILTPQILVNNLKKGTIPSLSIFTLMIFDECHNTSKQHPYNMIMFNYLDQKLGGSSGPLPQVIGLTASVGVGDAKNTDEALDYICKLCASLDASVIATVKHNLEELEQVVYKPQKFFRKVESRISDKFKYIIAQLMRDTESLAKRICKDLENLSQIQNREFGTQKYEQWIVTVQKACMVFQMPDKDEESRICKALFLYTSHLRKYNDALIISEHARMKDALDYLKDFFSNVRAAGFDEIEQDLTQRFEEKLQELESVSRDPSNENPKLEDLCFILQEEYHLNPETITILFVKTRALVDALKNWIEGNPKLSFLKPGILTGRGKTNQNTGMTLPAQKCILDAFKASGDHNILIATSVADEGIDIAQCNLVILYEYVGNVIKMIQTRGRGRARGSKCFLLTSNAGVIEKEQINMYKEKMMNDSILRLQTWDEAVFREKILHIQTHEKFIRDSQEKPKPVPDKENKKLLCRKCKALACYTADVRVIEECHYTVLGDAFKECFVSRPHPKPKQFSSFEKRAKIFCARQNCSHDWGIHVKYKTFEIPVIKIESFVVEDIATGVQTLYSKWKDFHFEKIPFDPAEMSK

Δ190-200 RIG-I = biological target: T2, Δ190-200 RIG-I (human, UniProt O95786 1-925, del190-200); assay: EMSA; streptavidin, ±2 mM ATP; oligomerizes with ATP; Buffer A: 50 mM MOPS pH 7.4, 5 mM DTT, 5 mM MgCl2, 0.01% Tween20, 25°C (fluorimetry: 15 nM RNA; ATPase: 15 nM protein, 1 mM ATP); EMSA in Buffer A at 4°C; details: protein: recombinant; tags: 6xHis-SUMO removed by Ulp1; label: 3' DY547 and 5' biotin on strand 2; blunt
T2 sequence: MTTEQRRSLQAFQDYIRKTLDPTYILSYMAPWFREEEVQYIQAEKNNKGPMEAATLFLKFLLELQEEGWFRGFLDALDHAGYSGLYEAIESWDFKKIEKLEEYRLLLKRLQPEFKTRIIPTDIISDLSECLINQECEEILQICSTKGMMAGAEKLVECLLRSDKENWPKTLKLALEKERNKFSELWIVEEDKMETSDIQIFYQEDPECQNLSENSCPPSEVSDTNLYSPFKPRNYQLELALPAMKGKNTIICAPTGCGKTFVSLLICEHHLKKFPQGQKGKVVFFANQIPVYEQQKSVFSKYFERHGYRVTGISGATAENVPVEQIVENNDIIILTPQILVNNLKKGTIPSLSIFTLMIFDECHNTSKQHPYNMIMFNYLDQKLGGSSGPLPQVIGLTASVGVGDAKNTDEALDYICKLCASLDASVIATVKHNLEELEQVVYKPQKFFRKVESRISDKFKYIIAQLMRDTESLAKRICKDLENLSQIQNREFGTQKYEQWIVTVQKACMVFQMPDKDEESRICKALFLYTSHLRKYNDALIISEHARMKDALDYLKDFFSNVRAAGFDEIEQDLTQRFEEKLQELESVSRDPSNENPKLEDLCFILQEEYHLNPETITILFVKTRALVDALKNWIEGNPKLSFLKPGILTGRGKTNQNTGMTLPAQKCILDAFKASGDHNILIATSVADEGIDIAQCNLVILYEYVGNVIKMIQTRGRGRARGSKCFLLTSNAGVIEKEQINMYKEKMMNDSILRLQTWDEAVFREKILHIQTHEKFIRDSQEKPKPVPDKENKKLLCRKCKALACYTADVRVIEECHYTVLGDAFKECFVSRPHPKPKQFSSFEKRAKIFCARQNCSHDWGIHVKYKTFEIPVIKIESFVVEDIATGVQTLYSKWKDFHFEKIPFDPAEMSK

B1: 5'ppp ds27 (dsRNA)
RNA 1: AUACGUCCUGAUAGUUAGUAUCCAUCG
RNA 2: CGAUGGAUACUAACUAUCAGGACGUAU
modifications: 5'ppp on strand 1
- apparent KD relative to Hel-CTD (WT RIG-I): ~5 fold weaker than Hel-CTD
- binding result (Δ190-200 RIG-I): binds
